In assay [1] the target is T1, LAIR1 on LAIR1 reporter cells (human, UniProt Q6GTX8 22-165, limits assumed).
T1 chain: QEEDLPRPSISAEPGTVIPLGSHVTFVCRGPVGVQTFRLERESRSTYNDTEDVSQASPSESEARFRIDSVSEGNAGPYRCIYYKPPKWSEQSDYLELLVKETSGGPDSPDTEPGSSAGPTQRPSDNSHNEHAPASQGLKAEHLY
Kind of assay: cell-based or functional assay.

Assay [2] has as its target T1, LAIR1 on LAIR1 reporter cells. The assay can be described thus: cell-based or functional assay.
The target is the same in assay [3]. Kind of assay: cell-based or functional assay.
The target in assay [4] is T2, human LAIR1 extracellular domain (ECD) protein with 6 HIS tag at the C-terminus (human, UniProt Q6GTX8 22-165).
T2 construct: Produced recombinantly in HEK293 cells; the whole entry is named here; also called LAIR1 ECD; LAIR1-ECD
T2 chain: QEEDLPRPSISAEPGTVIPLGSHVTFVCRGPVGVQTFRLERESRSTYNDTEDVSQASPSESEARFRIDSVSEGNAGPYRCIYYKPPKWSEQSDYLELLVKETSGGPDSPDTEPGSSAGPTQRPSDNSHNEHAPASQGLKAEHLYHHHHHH
The assay can be described thus: ELISA, LAIR1 ECD coated, mAb titrated, anti-rabbit HRP. The protocol:
(§1) The inventors then used a concentration titration (0-10 μg/ml) by ELISA to determine the LAIR1 monoclonal antibody (mAbs) binding to human LAIR1 ECD. […] For FIGS. 2-39, X axis indicates the antibody concentrations and Y-axis is binding signals, measured as OD (450 nm). To perform the ELISA assay, LAIR1 ECD recombinant protein was coated on high absorption 96-well plates. Serial diluted (3-fold) LAIR1 mAb was added to the coated/blocked plates and detected using goat anti-rabbit F(ab′)2 conjugated HRP as secondary antibody. All assays were repeated 3 times and the titration curves were fitted using 4-parameter fitting curve using the GraphPad software for EC₅₀ estimation.
(§2) Serial dilutions of the LAIR1 monoclonal antibodies (IgGs or scFvs fragments), starting from […] and 3-fold titration down for 12 steps, were added to the 96-well plate for binding by incubating 45 minutes at 37° C. with a cover on the assay plate. Then the plates were washed with PBS containing Tween 20 (0.05% concentration) for 3 times and PBS one time. […] Detection was conducted by adding HRP substrate, TMB (ThermoFisher) for 10 minutes, and stopped by adding 50 μl/well of 2N H2504. The plates were read for absorbance at 450 nm using a plate reader (SpectraMax M4, Molecular Devices). Data were collected and graphed using a 4-parameter fitting curve with GrapPad Prism 7 software for EC₅₀ calculation.
(In an ELISA, binding on a coated surface is turned into a signal by an enzyme label.)

Assay [5] concerns the target T2, human LAIR1 extracellular domain (ECD) …. Kind of assay: ELISA, LAIR1 ECD coated. How it is done:
as §1, §2

The values below come from patent US20190338026A1 (University of Texas, published 2019).

B1: LA-252 (antibody, V domains shown)
VH: EQSVEESGGRLVTPGTPLTLTCTASGFTISDYHMCWVRQAPGKGLEWIGLIRASHSTAYASWANGRFTISRTSTTVDLKITSPTSEDTATYFCARYGGSGIGCNLWGPGTLVTISS
VL: ELVLTQTPASVSEPVGGTVTIKCQASQSIDSNLAWYQQKPGQPPKQLIYAVSNLASGVPSRFKGSGSGTEFTLTISDLECADAASYYCECTYYGNSYVGGFGGGTEVEIK
notes: Rabbit monoclonal IgG; Called a potential antagonist antibody
For the molecule B1, the “GFP+% of LAIR1 reporter cells, collagen I coated, soluble Ab” value in assay [1] worked out at 0.679%. In assay [2], the “GFP+ of LAIR1 reporter cells, Collagen I coated” value was under 5% and the “GFP+ of LAIR1 reporter cells, Collagen I coated + K562” value (shortened to “GFP+ … Collagen I coated + K562”) is under 5%. For the same molecule, the “GFP+% of LAIR1 reporter cells, collagen I coated, soluble Ab and K562 cells” value (shortened to “GFP+% … soluble Ab and K562 cells”) in assay [3] stood at 0.698%. This molecule returned an EC50 in assay [4] of 0.05 nM. In addition, in assay [5], the “EC50 (read off the curve)” value is about 8 ng/mL.

B2: LA-235 (antibody, V domains shown)
VH: SSSVEESEGRLVTPGTPLTLTCTVSGFSLSSYTMGWVRQAPGEGLEWIGTTSNDGSTYYASWAKGRFTISKTSSTTVDLMMTSLTTEDTATYFCVRGTNIRSLWGPGTLVTISS
VL: ELVMTQTPASVEAAVGGTVTIKCQASQSIGSNLAWYQQKPGQPPKLLIYLASALASGVSSRFKGSGSGSDFTLTISDLECADAATYYCQCTYGSSNNNNYGDPFGGGTEVEIK
notes: Rabbit monoclonal IgG; Called an antagonist antibody
For the molecule B2, the “GFP+% of LAIR1 reporter cells, collagen I coated, soluble Ab” value in assay [1] turned out to be 5.76%. In assay [2], the “GFP+ of LAIR1 reporter cells, Abs coated” value is over 40% and the “GFP+ of LAIR1 reporter cells, Collagen I coated” value is under 5%. Further, the “GFP+% … soluble Ab and K562 cells” value in assay [3] stood at 19%. The molecule also had an EC50 in assay [4] of 0.03 nM. For the same molecule, the “EC50 (read off the curve)” value in assay [5] is about 10 ng/mL.

B3: LA-192 (antibody, V domains shown)
VH: EQSLEESGGRLVTPGTPLTLTCTASGFSLSSYYMTWVRQAPGKGLEWIGYMHTGGGVVYASWATGRFTISRTSTTVDLKITSPTTEDTATYFCARSHAGYSTINRLDLWGVGTLVTISS
VL: ELDLTQTPSSVSAAVGGTVTISCQSSPSVYTNNLSWFQQKPGQPPKLLIYDASKLESGVPSRFRGSGSGTQFTLTISDVQCDDAATYYCAGAYLSDSDTTFGGGTELEIK
notes: Rabbit monoclonal IgG; Called an agonist antibody
B3: in assay [1], the “GFP+% of LAIR1 reporter cells, collagen I coated, soluble Ab” value came to 63.2%. For the same molecule, in assay [2], the “GFP+ of LAIR1 reporter cells, Abs coated” value was over 40%; the “GFP+ of LAIR1 reporter cells, Collagen I coated” value is over 40%; the “GFP+ … Collagen I coated + K562” value was over 40%. Besides, the “GFP+% … soluble Ab and K562 cells” value in assay [3] amounted to 18.7%. Further, the EC50 in assay [4] turned out to be 0.04 nM. The “EC50 (read off the curve)” value in assay [5] is about 20 ng/mL.

B4: LA-94 (antibody, V domains shown)
VH: EQSLEESEGRLVTPGTPLTLTCTASGFSLSGYHMSWVRQAPGKGLEYIGYISERGTSYYANWAKGRFTVSKSSSSTVVLSIISPTAEDTATYFCARYGGGDSAFILWGPGTLVTISS
VL: ELVMTQTPASVSGPVGGTVTIKCQASHNIDNSLAWYQQKPGQPPKLLIYKASTLASGVSSRFKGSGSGTEYTLTISDLECADAATYFCQGTIGLNSGCAFGGGTEVEIK
notes: Rabbit monoclonal IgG; Called an agonist antibody; also called mAb LA-94; agonist Ab LA-94
For the molecule B4, in assay [1], the “GFP+% of LAIR1 reporter cells, collagen I coated, soluble Ab” value was 50.4%. Further, in assay [2], the “GFP+ of LAIR1 reporter cells, Abs coated” value is over 40%; the “GFP+ of LAIR1 reporter cells, Collagen I coated” value was over 40%; the “GFP+ … Collagen I coated + K562” value is over 40%. Further, in assay [3], the “GFP+% … soluble Ab and K562 cells” value was 24.6%. Also, it took 0.12 nM to reach a half-maximal effect in assay [4] (EC50). Moreover, in assay [5], the “EC50 (read off the curve)” value is about 20 ng/mL.

B5: LA-219 (antibody, V domains shown)
VH: EQSVESGGGLITPGGTLTLTCTASGFTVTRYYMNWVRQAPGKGLEWIGYIYASSKTYYANWAKGRFTISKTSTTVDLKMTSLTAEDTGTYFCARGGVGNSGLNLDLWGPGTLVTISS
VL: ELDMTQTPASVSEPVGGTVTIKCQASQSIGSWLAWYQQKPGQPPKLLIYQASRLASGVSSRFGGSGSGTEFTLTISDLECADAATYYCQQAEYSGDVENTFGGGTEVVVK
notes: as for B1
Regarding B5, the “GFP+% of LAIR1 reporter cells, collagen I coated, soluble Ab” value in assay [1] was 0.924%. In assay [2], the “GFP+ of LAIR1 reporter cells, Collagen I coated” value was under 5% and the “GFP+ … Collagen I coated + K562” value is under 5%. In addition, the “GFP+% … soluble Ab and K562 cells” value in assay [3] stood at 2.11%. In assay [4], this molecule returned an EC50 of 0.06 nM. Besides, in assay [5], the “EC50 (read off the curve)” value is about 8 ng/mL.

In general, EC50 refers to the concentration at which the effect is half-maximal. The low end stands for greater potency, the high end for weaker potency. What is called EC50 (read off the curve) is the concentration needed to bring the measured effect to its halfway point.
